The text below walks through data of IntAct's records for PubMed 19234114.

Sequences and labels used below:
B1: Ferroportin (Mus musculus), Q9JHI9 (parent)
chain: MTKARDQTHQEGCCGSLANYLTSAKFLLYLGHSLSTWGDRMWHFAVSVFLVELYGNSLLLTAVYGLVVAGSVLVLGAIIGDWVDKNARLKVAQTSLVVQNVSVILCGIILMMVFLHKNELLTMYHGWVLTVCYILIITIANIANLASTATAITIQRDWIVVVAGENRSRLADMNATIRRIDQLTNILAPMAVGQIMTFGSPVIGCGFISGWNLVSMCVEYFLLWKVYQKTPALAVKAALKVEESELKQLTSPKDTEPKPLEGTHLMGEKDSNIRELECEQEPTCASQMAEPFRTFRDGWVSYYNQPVFLAGMGLAFLYMTVLGFDCITTGYAYTQGLSGSILSILMGASAITGIMGTVAFTWLRRKCGLVRTGLFSGLAQLSCLILCVISVFMPGSPLDLSVSPFEDIRSRFVNVEPVSPTTKIPETVFTTEMHMSNMSNVHEMSTKPIPIVSVSLLFAGVIAARIGLWSFDLTVTQLLQENVIESERGIINGVQNSMNYLLDLLHFIMVILAPNPEAFGLLVLISVSFVAMGHLMYFRFAQKTLGNQIFVCGPDEKEVTDENQPNTSVV

The assay covers variants of B1. The following applies: with jak2_human JAK2, O60674.
Chain of jak2_human JAK2, O60674 (O60674 whole entry): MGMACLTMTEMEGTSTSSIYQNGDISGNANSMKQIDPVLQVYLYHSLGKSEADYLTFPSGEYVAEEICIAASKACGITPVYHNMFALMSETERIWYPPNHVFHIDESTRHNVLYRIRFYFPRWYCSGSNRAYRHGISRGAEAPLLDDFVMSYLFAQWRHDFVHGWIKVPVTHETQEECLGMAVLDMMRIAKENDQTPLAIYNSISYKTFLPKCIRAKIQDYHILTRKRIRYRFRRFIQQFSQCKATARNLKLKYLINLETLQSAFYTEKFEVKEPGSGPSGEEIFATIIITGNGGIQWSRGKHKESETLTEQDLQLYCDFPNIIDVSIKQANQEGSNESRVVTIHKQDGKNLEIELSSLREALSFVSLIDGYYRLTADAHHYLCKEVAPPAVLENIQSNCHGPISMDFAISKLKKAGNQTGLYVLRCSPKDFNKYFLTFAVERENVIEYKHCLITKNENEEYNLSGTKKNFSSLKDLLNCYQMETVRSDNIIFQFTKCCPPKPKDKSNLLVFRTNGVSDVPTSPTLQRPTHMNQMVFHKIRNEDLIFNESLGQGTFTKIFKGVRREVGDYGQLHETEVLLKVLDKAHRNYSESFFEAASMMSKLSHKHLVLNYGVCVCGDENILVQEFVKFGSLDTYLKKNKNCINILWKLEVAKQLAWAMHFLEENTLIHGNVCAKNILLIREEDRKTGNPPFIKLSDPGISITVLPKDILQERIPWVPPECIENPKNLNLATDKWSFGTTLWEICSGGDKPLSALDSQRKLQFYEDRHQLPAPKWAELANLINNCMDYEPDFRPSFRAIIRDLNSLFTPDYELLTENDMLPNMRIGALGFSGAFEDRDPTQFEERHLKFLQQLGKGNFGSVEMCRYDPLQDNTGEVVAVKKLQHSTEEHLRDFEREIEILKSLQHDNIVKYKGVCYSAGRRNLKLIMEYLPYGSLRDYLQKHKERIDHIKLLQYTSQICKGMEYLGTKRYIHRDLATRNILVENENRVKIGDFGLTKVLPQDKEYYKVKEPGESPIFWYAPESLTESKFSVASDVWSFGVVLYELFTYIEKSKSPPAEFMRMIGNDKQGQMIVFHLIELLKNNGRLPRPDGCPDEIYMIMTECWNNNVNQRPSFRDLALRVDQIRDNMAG
For the variant C326Y, the “effect of a mutation on the interaction” value is “disrupting interaction”.
